Results as given in the supplement of paper PMC12783771.
Changes are numbered by the printed parent chain. ± gives the standard deviation of the averaged measurements.

B1: library; a variant is named by its letters at X, in order (parent)
chain: MNIQIGELAKRTACPVVTIRFYEQEGLLPPPGRSRGNFRLYGEEHVERLQFIRHCRSLDMPLSXVRTLLSYRKRPDQDCGEVXMLLDEHXRQVESRIGALLELXHXLVELREACSGARPAQSCGILQGLSDCVCDTRGTTAHXSD
B2: library; a variant is named by its letters at X, in order (parent)
chain: B1 chain with X90I, X106H, L107X, G128X, D131X, D135X

Experiments:
[1] = variants of: B1; test: sfGFP reporter fluorescence (15 h) (µM FITC); higher = higher leak; conditions: library round: Round 3b; ligand: none
Experimental: (§1)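 Cell-free biosensing: 1 µL Echo-assembled CFE reactions with linear PbrR variant templates (5 nM) and pPbrR-sfGFP reporter, with 1 µM Pb, 30 µM Zn or no ligand; endpoint sfGFP fluorescence after 15 h at 30 °C calibrated as µM FITC. Round 3b rational combinatorial PbrR mutants; 3 biological replicates.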

[2] = variants of: B1; test: sfGFP reporter fluorescence (15 h) (µM FITC); higher = stronger transcriptional activation; conditions: library round: Round 3b
Experimental: as §1

[3] = variants of: B2; test: sfGFP reporter fluorescence (15 h) (µM FITC); higher = higher leak; conditions: library round: Round 3; ligand: none
Experimental: (§2)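 Cell-free biosensing: 1 µL Echo-assembled CFE reactions with linear PbrR variant templates (5 nM) and pPbrR-sfGFP reporter, with 1 µM Pb, 30 µM Zn or no ligand; endpoint sfGFP fluorescence after 15 h at 30 °C calibrated as µM FITC. Round 3 ML-predicted PbrR mutants; up to 3 biological replicates.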

[4] = variants of: B2; test: sfGFP reporter fluorescence (15 h) (µM FITC); higher = stronger transcriptional activation; conditions: library round: Round 3
Experimental: as §2

Row | Variant | sfGFP reporter fluorescence [1] | sfGFP reporter fluorescence ([2]; ligand: 1 µM Pb) | sfGFP reporter fluorescence ([2]; ligand: 30 µM Zn) | sfGFP reporter fluorescence [3] | sfGFP reporter fluorescence ([4]; ligand: 1 µM Pb) | sfGFP reporter fluorescence ([4]; ligand: 30 µM Zn)
1 | KIATEP | 0.0672 ± 0.0044 | 1 ± 0.062 | 0.0643 ± 0.0007 |  |  | 
2 | DNAVET | 0.0438 ± 0.0014 | 0.0536 ± 0.0031 | 0.0603 ± 0.0036 |  |  | 
3 | DNAVER | 0.0468 ± 0.0035 | 0.0511 ± 0.0015 | 0.062 ± 0.0046 |  |  | 
4 | DIIVET | 0.0433 ± 0.0015 | 0.0933 ± 0.0025 | 0.0469 ± 0.0019 |  |  | 
5 | DIIVER | 0.0467 ± 0.0027 | 0.0917 ± 0.0042 | 0.047 ± 0.0038 |  |  | 
6 | KNITER | 0.0631 ± 0.0055 | 0.311 ± 0.029 | 0.926 ± 0.12 |  |  | 
7 | KNITET | 0.0629 ± 0.0071 | 0.318 ± 0.015 | 0.944 ± 0.15 |  |  | 
8 | KIIVAT | 0.0506 ± 0.0022 | 0.424 ± 0.013 | 0.0534 ± 0.0041 |  |  | 
9 | KIAKET | 0.0531 ± 0.0032 | 0.4674 ± 0.0044 | 0.057 ± 0.0063 |  |  | 
10 | KIAKER | 0.0554 ± 0.0012 | 0.614 ± 0.024 | 0.0592 ± 0.0041 |  |  | 
11 | KIAKEP | 0.052 ± 0.0034 | 0.387 ± 0.02 | 0.051 ± 0.0007 |  |  | 
12 | KIAKHT | 0.0693 ± 0.0034 | 0.93 ± 0.043 | 0.152 ± 0.011 |  |  | 
13 | KIAKHR | 0.072 ± 0.002 | 1.07 ± 0.074 | 0.135 ± 0.017 |  |  | 
14 | DFITER | 0.0424 ± 0.0031 | 0.0522 ± 0.0026 | 0.0451 ± 0.0034 |  |  | 
15 | DFITET | 0.0393 ± 0.0042 | 0.0493 ± 0.0022 | 0.0433 ± 0.0032 |  |  | 
16 | KIIVHT | 0.053 ± 0.0034 | 0.673 ± 0.034 | 0.101 ± 0.015 |  |  | 
17 | KIIVET | 0.0535 ± 0.0022 | 0.346 ± 0.015 | 0.0557 ± 0.0014 |  |  | 
18 | KIIVEP | 0.0554 ± 0.0036 | 0.372 ± 0.031 | 0.0556 ± 0.0028 |  |  | 
19 | KNAVHR | 0.0557 ± 0.0039 | 0.37 ± 0.021 | 0.644 ± 0.054 |  |  | 
20 | KNAVHT | 0.0573 ± 0.0042 | 0.322 ± 0.0077 | 0.602 ± 0.057 |  |  | 
21 | DIAVAT | 0.0441 ± 0.0047 | 0.096 ± 0.0083 | 0.0457 ± 0.0025 |  |  | 
22 | DIAVAR | 0.0429 ± 0.0036 | 0.102 ± 0.0042 | 0.047 ± 0.0015 |  |  | 

Row | Variant | sfGFP reporter fluorescence [1] | sfGFP reporter fluorescence ([2]; ligand: 1 µM Pb) | sfGFP reporter fluorescence ([2]; ligand: 30 µM Zn) | sfGFP reporter fluorescence [3] | sfGFP reporter fluorescence ([4]; ligand: 1 µM Pb) | sfGFP reporter fluorescence ([4]; ligand: 30 µM Zn)
23 | DIAVAP | 0.0451 ± 0.0067 | 0.0922 ± 0.0043 | 0.0441 ± 0.0071 |  |  | 
24 | KIATHP | 0.07594 ± 0.00067 | 1.34 ± 0.049 | 0.0972 ± 0.014 |  |  | 
25 | KIATHT | 0.0743 ± 0.0012 | 1.3 ± 0.031 | 0.112 ± 0.0078 |  |  | 
26 | KIATHR | 0.0655 ± 0.0015 | 1.19 ± 0.2 | 0.0963 ± 0.013 |  |  | 
27 | DIAKAT | 0.0356 ± 0.0029 | 0.0683 ± 0.0046 | 0.0346 |  |  | 
28 | DIAKAR | 0.0442 ± 0.0031 | 0.0673 ± 0.0063 | 0.045 ± 0.0015 |  |  | 
29 | KFITAT | 0.0473 ± 0.0032 | 0.335 ± 0.012 | 0.0678 ± 0.0076 |  |  | 
30 | KFITAR | 0.0479 ± 0.003 | 0.394 ± 0.028 | 0.0776 ± 0.0024 |  |  | 
31 | KIAVAP | 0.0556 ± 0.001 | 0.772 ± 0.15 | 0.0487 ± 0.0065 |  |  | 
32 | KIAVAR | 0.0586 ± 0.0045 | 1.08 ± 0.06 | 0.0523 ± 0.0046 |  |  | 
33 | KIAVAT | 0.0607 ± 0.0022 | 1.25 ± 0.024 | 0.0576 ± 0.0032 |  |  | 
34 | DNKCGAAY |  |  |  | 1.05 ± 0.072 | 2.12 ± 0.14 | 2.26 ± 0.041
35 | DNRCIDAK |  |  |  | 0.674 ± 0.12 | 1.93 ± 0.22 | 2.51 ± 0.34
36 | KIVLGDDR H106E |  |  |  | 0.0556 ± 0.0015 | 0.573 ± 0.037 | 0.0612 ± 0.0023
37 | DNKCMDAK G124A |  |  |  | 0.531 ± 0.049 | 2.11 ± 0.15 | 2.65 ± 0.21
38 | DNRCGAAP |  |  |  | 1.21 ± 0.066 | 2.35 ± 0.047 | 2.34 ± 0.039
39 | DNKCGAAP H54C C55A |  |  |  | 0.912 ± 0.075 | 1.67 ± 0.091 | 1.92 ± 0.15
40 | LIVCGAAP H54C C55P H106L |  |  |  | 0.0444 ± 0.0015 | 0.0432 ± 0.00085 | 0.0495 ± 0.0022
41 | DNKLGAPY V133A |  |  |  | 0.0571 ± 0.00067 | 0.174 ± 0.0037 | 0.728 ± 0.029
42 | ENKCMDAK |  |  |  | 0.33 ± 0.045 | 1.43 ± 0.15 | 2.44 ± 0.15
43 | KNKCMDDP M60L P61D |  |  |  | 3.01 ± 0.32 | 3.17 ± 0.26 | 3.28 ± 0.24
44 | KCVCMDDP V16C |  |  |  | 0.185 ± 0.012 | 1.75 ± 0.16 | 0.434 ± 0.039
